Values of other authors, collected in patent publication US20120064039A1, “Use of Guanylyl Cyclase C Agonists to Suppress Appetite” (priority 2009, published 2012).

Target: ST receptors (guanylate cyclase) (Homo sapiens, UniProt P25092)
Conditions: relative to native ST; about

Sequence of ST receptors (guanylate cyclase) (P25092 24-1073): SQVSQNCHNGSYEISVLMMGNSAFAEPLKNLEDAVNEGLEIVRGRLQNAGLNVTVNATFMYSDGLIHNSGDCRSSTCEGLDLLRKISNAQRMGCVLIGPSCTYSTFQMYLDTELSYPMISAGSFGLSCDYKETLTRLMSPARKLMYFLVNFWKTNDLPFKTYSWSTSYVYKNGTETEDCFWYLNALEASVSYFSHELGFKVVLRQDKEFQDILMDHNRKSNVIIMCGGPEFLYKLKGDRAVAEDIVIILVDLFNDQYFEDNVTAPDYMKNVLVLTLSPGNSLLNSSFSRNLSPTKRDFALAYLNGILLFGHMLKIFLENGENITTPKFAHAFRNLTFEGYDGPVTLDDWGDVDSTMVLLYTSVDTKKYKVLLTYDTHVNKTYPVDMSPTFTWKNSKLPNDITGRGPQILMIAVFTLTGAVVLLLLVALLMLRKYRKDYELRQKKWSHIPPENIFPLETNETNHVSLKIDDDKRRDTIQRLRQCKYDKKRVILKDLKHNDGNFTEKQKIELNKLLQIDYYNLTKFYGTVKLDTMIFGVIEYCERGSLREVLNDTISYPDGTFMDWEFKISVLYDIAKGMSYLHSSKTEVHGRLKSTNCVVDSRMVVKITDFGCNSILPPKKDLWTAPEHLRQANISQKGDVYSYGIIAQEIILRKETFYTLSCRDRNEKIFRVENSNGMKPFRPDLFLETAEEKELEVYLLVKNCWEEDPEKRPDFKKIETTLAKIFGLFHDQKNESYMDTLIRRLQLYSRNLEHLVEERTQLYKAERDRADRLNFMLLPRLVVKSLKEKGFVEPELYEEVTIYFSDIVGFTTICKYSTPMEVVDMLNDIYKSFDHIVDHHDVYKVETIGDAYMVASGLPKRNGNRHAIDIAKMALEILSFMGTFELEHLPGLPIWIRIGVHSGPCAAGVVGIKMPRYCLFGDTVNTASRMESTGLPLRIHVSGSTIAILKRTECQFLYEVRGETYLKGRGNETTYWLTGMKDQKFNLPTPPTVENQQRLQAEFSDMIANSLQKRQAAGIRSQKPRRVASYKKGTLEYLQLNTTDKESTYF

## guanylin (PNTCEICAYAACTGC; listed as Rattus norvegicus) [native GCC ligand]
  activates guanylate cyclase at a level less than native ST: 10- to 100 fold
